Experimental data: patent publication US20100210525A1 (University of California, published 2010)
Non-standard residues stand in square brackets, D forms with d. No end group written: not given here. pY = N[C@@H](Cc1ccc(OP(=O)(O)O)cc1)C(=O)O

Tests used:
[1] = target: T1, Talin F3 Q381V (mouse, UniProt P26039 309-405, limits assumed); assay: ITC, peptide injected into talin F3 Q381V, 23 C, 200 mM Tris, 300 mM NaCl, pH 7.5
T1 construct: domain: F3 sub-domain; As m1, with the mutation
Method: (§1) Peptide concentrations were typically at 150 to 300 μM while protein concentrations ranged from 25 to 50 μM. For the W359A mutant, the protein concentration was 50 μM and the peptide concentration was 1 mM. Prior to ITC titrations, the peptides and proteins were in buffer consisting of 200 mM Tris, 300 mM NaCl, pH 7.5. All experiments were conducted at 23 degrees Celsius. […] The bottom panel is the binding curve, calculated using the software program Origin.
(§2) Isothermal titration calorimetry (ITC) was performed on a VP-ITC calorimeter (Microcal, Northampton, Mass.). Aliquots (8 μL) of wildtype ([…]p[…]) (SEQ ID NO: 2) or mutant chimeric peptide were injected into the cell containing wildtype or mutant talin F3 domain. Peptide concentrations were typically 150 to 300 μM while protein concentrations ranged from 25 to 50 μM. For the W359A mutant, the protein concentration was 50 μM and the peptide concentration was 1 mM. Prior to ITC titrations, the peptides and proteins were in 200 mM Tris, 300 mM NaCl, pH 7.5. In each experiment 37 injections were made. The experiments were performed at 23° C. All titrations were performed at least twice and with different protein preparations. Experimental data were analyzed using Microcal Origin software.

[2] = target: T2, Talin F3 W359A (mouse, UniProt P26039 309-405, limits assumed); assay: ITC
T2 construct: domain: F3 sub-domain; As m1, with the mutation; also called talin (W359A) mutant
T2 sequence (P26039 309-405 W359A limits assumed): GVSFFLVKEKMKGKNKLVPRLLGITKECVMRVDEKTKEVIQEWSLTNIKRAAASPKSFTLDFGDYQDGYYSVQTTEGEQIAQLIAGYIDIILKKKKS
Method: as §1, §2

[3] = target: T3, Talin F3 L325R (mouse, UniProt P26039 309-405, limits assumed); assay: ITC, peptide injected into talin F3 L325R, 23 C, 200 mM Tris, 300 mM NaCl, pH 7.5
T3 construct: domain: F3 sub-domain; As m1, with the mutation
T3 sequence (P26039 309-405 L325R limits assumed): as the sequence (P26039 309-405 W359A limits assumed) above, with L17R, A51W counted along it
Method: as §1, §2

[4] = target: T2, Talin F3 W359A; assay: ITC, 1 mM peptide injected into 50 µM talin F3 W359A, 23 C, 200 mM Tris, 300 mM NaCl, pH 7.5
Method: as §1, §2

[5] = target: T4, Talin F3 sub-domain, wild type (mouse, UniProt P26039 309-405, limits assumed); assay: ITC, peptide injected into talin F3, 23 C, 200 mM Tris, 300 mM NaCl, pH 7.5
T4 construct: domain: F3 sub-domain; U-15N labelled for NMR; also called Talin F3 wt; talin F3 domain
T4 sequence (P26039 309-405 limits assumed): as the sequence (P26039 309-405 W359A limits assumed) above, with A51W counted along it
Method: as §1, §2

T1 sequence (P26039 309-405 Q381V limits assumed): as the sequence (P26039 309-405 W359A limits assumed) above, with A51W, Q73V counted along it

B1: β3/PIPKIγ chimeric peptide, wild type (peptide)
peptide: KKLLITIHDRKEFAKFEEERARAKWV[pY]SPLHYSAR
notes: Integrin β3 tail residues N-terminal of W739, PIPKIγ residues C-terminal of it (numbered 740-746 in the deposited structure); also called β3 chimera; β3-integrin/PIPKIγ peptide
Kd [1]: 135 nM
fold reduction of affinity against wild-type talin F3 [2]: ~1000 fold
Kd [3]: 212 nM
Kd [4]: 106000 nM
Kd [5]: 140 nM

B2: β3/PIPKIγ chimeric peptide F730A (peptide)
peptide: KKLLITIHDRKEFAKAEEERARAKWV[pY]SPLHYSAR
notes: also called β3 chimera F730A; β3-F730A
Kd [5]: 105 nM

B3: β3/PIPKIγ chimeric peptide F727A (peptide)
peptide: KKLLITIHDRKEAAKFEEERARAKWV[pY]SPLHYSAR
notes: also called β3 chimera F727A; β3-F727A
Kd [5]: 118 nM
